According to publication PMC9399681, “Structural insight into ASH1L PHD finger recognizing methylated histone H3K4 and promoting cell growth in prostate cancer” (Frontiers in Oncology, 2022):
Primed or numbered codes have the meaning given here. Where no end group is shown, it is not given here. [ ]: non-standard residue; d: D form. Me3″ = trimethylation (trimethyl-lysine); Me2 = dimethylation (dimethyl-lysine); Lys(Me2) = CN(C)CCCC[C@H](N)C(=O)O

T1: mASH1L PHD domain (residue 2573–2624) (mouse, UniProt Q99MY8 2573-2624)
T1 chain: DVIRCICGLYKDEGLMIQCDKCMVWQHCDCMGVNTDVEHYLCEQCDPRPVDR

T2: mASH1L PHD domain (residue 2573–2624) D2584E (mouse, UniProt Q99MY8 2573-2624, D2584E)
T2 construct: also called Asp2584 to Glu; source: E. coli BL21 (DE3), purified (MBPTrap, TEV cleavage, Superdex 75)
T2 sequence (looked up): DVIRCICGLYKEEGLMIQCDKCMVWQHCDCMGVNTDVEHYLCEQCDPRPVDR

T3: mASH1L PHD domain (residue 2573–2624) Q2590E (mouse, UniProt Q99MY8 2573-2624, Q2590E)
T3 construct: also called Gln2590 to glutamate; source: E. coli BL21 (DE3), purified (MBPTrap, TEV cleavage, Superdex 75)
T3 sequence (looked up): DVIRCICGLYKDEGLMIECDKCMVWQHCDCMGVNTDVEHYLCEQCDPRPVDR


What was measured:
[1] = target: T4, mASH1L PHD domain (residue 2573–2624) (mouse, UniProt Q99MY8 2573-2624); test: ITC; MicroCal iTC200, 25°C, 1×PBS pH 7.2, 100 μM ZnCl2; 100 µM PHD or tandem Bromo-PHD in the cell, titrated with 3 mM peptide (31 injections of 1.2 μl); one set of sites model; conditions: both partners purified
T4 construct: 15N- or 13C-labelled for the NMR experiments; also called ASH1L PHD finger; source: E. coli BL21 (DE3), purified (MBPTrap, TEV cleavage, Superdex 75)

[2] = target: T5, His-tagged Bromo-PHD tandem domain (residue 2425–2627) of mASH1L (mouse, UniProt Q99MY8 2425-2627); test: as above; conditions: both partners purified
T5 construct: ASH1L (mASH1L), bromodomain and PHD finger in tandem, residues 2425-2627; pNIC-Bsa4 vector; no cleavage of the His tag is described; also called tandem Bromo-PHD protein; source: E. coli BL21 (DE3), purified (HiTrap IMAC FF, Superdex 75)

[3] = target: mASH1L PHD domain (residue 2573–2624) Q2590E (mouse, UniProt Q99MY8 2573-2624, Q2590E); test: ITC
[4] = target: T1, mASH1L PHD domain (residue 2573–2624); test: ITC
[5] = target: mASH1L PHD domain (residue 2573–2624) W2597A (mouse, UniProt Q99MY8 2573-2624, W2597A); test: ITC
[6] = target: mASH1L PHD domain (residue 2573–2624) M2588A (mouse, UniProt Q99MY8 2573-2624, M2588A); test: ITC
[7] = target: mASH1L PHD domain (residue 2573–2624) E2585A (mouse, UniProt Q99MY8 2573-2624, E2585A); test: ITC
[8] = target: mASH1L PHD domain (residue 2573–2624) D2573A (mouse, UniProt Q99MY8 2573-2624, D2573A); test: ITC
[9] = target: mASH1L PHD domain (residue 2573–2624) (mouse) (UniProt Q99MY8); test: ITC; MicroCal iTC200, 25°C, 1×PBS pH 7.2, 100 μM ZnCl2; 100 µM PHD or tandem Bromo-PHD in the cell, titrated with 3 mM peptide (31 injections of 1.2 μl); one set of sites model
[10] = target: T2, mASH1L PHD domain (residue 2573–2624) …; test: ITC; PHD mutants in the cell; H3 (1–15) peptides at 1.5 mM, 19 injections of 2 μl; 25°C, 1×PBS pH 7.2, 100 μM ZnCl2; one set of sites model; conditions: both partners purified
[11] = target: T3, mASH1L PHD domain (residue 2573–2624) …; test: as above; conditions: both partners purified
[12] = target: mASH1L PHD domain (residue 2573–2624) (mouse) (UniProt Q99MY8); test: NMR titration; 1H,15N HSQC; 100 μM PHD domain titrated with 25 to 2,000 μM peptide; 1×PBS pH 7.2, 100 μM ZnCl2, 298 K; single-site binding model
[13] = target: mASH1L PHD domain (residue 2573–2624) I2575A (mouse, UniProt Q99MY8 2573-2624, I2575A); test: ITC

Row | Binder | Kd [1] [µM] | Kd [2] [µM] | Kd [3] [µM] | Kd [4] [µM] | Kd [5] [µM] | Kd [6] [µM] | Kd [7] [µM] | Kd [8] [µM] | Kd [9] [µM] | Kd [10] [µM] | binding result [11] | Kd [12] [µM] | Kd [13] [µM]
1 | APATGGVK(Me2)KPHRYRP [histone H3 (29–43) peptide with dimethylation on lysine 36] | > 500 | – | – | – | – | – | – | – | – | – | – | – | –
2 | ARTK(Me)QTARKSTGGKA (peptide, UniProt P68431 2-16, looked up, histone H3, residues 1-15; also called H3K4me1; H3K4me; source: synthetic peptide (MIMOYOPES, Wuxi, China)) [histone H3 (1–15) peptide, monomethylated on lysine 4] | – | ~64 | 31 | 41 | > 200 | > 200 | 140 | 188 | 75 | ~54 | binds | 181 | –
3 | ARTK(Me3″)QTARKSTGGKA (peptide, UniProt P68431 2-16, looked up, histone H3, residues 1-15; also called H3K4me3; source: synthetic peptide (MIMOYOPES, Wuxi, China)) [histone H3 (1–15) peptide, trimethylated on lysine 4] | – | ~48 | 33 | 33 | > 200 | > 200 | 49 | 86 | 64 | ~38 | binds | 106 | 103
4 | ART[Lys(Me2)]QTARKSTGGKA (also called H3K4me2; H3K4me2 peptide (1–15); source: synthetic peptide (MIMOYOPES, Wuxi, China)) [histone H3 (1–15) peptide, dimethylated on lysine 4] | – | ~29 | 35 | – | > 200 | > 200 | 174 | 71 | 39 | ~26 | binds | 238 | > 200
5 | RTKQTARK(Me2)STGGKAP (peptide, UniProt P68431 3-17, looked up, histone H3, residues 2-16; also called H3K9me2; source: synthetic peptide (MIMOYOPES, Wuxi, China)) [histone H3 (2–16) peptide with dimethylation on lysine 9] | > 500 | – | – | – | – | – | – | – | – | – | – | – | –
6 | ARTKQTARKSTGGKA (peptide, UniProt P68431 2-16, looked up, histone H3, residues 1-15; also called H3K4; H3K4me0; source: synthetic peptide (MIMOYOPES, Wuxi, China)) [histone H3 (1–15) peptide, unmethylated on lysine 4] | – | > 500 | – | – | – | – | – | – | > 300 | – | – | – | –
